Patent US20200317768A1 (published 2020)

T1: cynomolgus monkey FcγRIIa1 extracellular domain, His-tagged (cynomolgus monkey)
T1 construct: also called cyno FcγRIIa1; cynoFcgRIIa1
T1 chain: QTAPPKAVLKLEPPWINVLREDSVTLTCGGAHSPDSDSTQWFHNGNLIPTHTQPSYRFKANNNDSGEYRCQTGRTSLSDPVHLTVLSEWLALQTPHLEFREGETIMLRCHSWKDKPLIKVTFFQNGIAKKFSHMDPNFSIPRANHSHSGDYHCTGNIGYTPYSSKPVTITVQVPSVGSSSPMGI

T2: cynomolgus monkey FcγRIIa2 extracellular domain, His-tagged (cynomolgus monkey)
T2 construct: also called cyno FcγRIIa2; cynoFcgRIIa2
T2 chain: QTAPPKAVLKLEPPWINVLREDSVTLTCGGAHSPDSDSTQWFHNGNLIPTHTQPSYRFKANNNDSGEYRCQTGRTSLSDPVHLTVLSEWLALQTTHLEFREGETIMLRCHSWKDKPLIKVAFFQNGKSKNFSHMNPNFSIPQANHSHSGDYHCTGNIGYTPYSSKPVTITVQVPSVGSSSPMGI

T3: cynomolgus monkey FcγRIIa3 extracellular domain, His-tagged (cynomolgus monkey)
T3 construct: also called cyno FcγRIIa3; cynoFcgRIIa3
T3 chain: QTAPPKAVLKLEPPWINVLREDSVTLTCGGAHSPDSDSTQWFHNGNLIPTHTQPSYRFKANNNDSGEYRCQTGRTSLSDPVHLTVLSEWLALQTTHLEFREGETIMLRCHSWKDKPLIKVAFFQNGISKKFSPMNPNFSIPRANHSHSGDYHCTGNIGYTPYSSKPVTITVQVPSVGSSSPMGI

T4: cynomolgus monkey FcγRIIb extracellular domain, His-tagged (cynomolgus monkey)
T4 construct: also called cyno FcγRIIb; cynoFcγRIIb
T4 chain: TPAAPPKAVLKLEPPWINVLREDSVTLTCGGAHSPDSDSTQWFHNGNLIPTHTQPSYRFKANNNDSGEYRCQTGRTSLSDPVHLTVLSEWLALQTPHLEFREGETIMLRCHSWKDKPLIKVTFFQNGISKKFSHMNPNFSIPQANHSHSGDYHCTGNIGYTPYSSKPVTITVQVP

T5: cynomolgus monkey FcγRIIIaS extracellular domain, His-tagged (cynomolgus monkey, UniProt Q8SPW2 21-206 at identity 1.00))
T5 construct: also called cyno FcγRIIIaS; cynoFcγRIIIaS
T5 chain: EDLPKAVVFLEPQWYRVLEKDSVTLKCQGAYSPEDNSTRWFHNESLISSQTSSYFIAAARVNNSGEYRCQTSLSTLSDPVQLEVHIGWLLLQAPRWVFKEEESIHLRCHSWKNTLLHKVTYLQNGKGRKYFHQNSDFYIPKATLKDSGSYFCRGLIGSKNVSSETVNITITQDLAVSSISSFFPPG

T6: human FcγRIIaR extracellular domain, His-tagged (human, UniProt P12318 34-217)
T6 construct: also called human FcγRIIa (type R); FcgRIIaR
T6 chain: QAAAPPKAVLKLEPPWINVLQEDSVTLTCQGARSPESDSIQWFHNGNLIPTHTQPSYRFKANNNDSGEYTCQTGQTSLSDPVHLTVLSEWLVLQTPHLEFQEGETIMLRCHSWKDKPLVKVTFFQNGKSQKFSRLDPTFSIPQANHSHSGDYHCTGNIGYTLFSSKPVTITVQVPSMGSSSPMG

T7: human FcγRIIb extracellular domain, His-tagged (human, UniProt P31994 43-217)
T7 construct: also called FcgRIIb (human)
T7 sequence: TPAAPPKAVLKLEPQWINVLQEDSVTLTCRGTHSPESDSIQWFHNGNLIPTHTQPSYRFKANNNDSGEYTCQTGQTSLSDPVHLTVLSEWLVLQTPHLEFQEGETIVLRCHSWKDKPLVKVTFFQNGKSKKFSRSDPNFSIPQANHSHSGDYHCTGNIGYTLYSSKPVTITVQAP


Tests used:
Test in all cases: SPR; KD of SG1 / KD of variant;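 also: relative to parent M103205H795-SG1 carrying the SG1 human heavy chain constant region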
[1] = target: T1, cynomolgus monkey FcγRIIa1 …
[2] = target: T2, cynomolgus monkey FcγRIIa2 …
[3] = target: T3, cynomolgus monkey FcγRIIa3 …
[4] = target: T4, cynomolgus monkey FcγRIIb extracellular …
[5] = target: T5, cynomolgus monkey FcγRIIIaS …
[6] = target: T6, human FcγRIIaR extracellular domain, …
[7] = target: T7, human FcγRIIb extracellular domain, …
[8] = target: T8, human FcγRIIIaV extracellular domain, His-tagged (human, UniProt P08637 17-208)
T8 construct: also called FcgRIIIaV
T8 sequence (P08637 17-208 F176V): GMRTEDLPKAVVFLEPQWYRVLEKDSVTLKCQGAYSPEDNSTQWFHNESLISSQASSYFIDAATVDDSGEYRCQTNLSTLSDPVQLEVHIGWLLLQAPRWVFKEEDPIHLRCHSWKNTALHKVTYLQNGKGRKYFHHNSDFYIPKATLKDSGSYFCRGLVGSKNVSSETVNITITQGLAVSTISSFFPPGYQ

Row | Binder | KD fold (SG1 = 1) [1] | KD fold (SG1 = 1) [2] | KD fold (SG1 = 1) [3] | KD fold (SG1 = 1) [4] | KD fold (SG1 = 1) [5] | KD fold (SG1 = 1) [6] | KD fold (SG1 = 1) [7] | KD fold (SG1 = 1) [8]
1 | M103205H795-MY043/M103202L889-SK1 (antibody, human IgG1, kappa, Substitution put into M103205H795-SG1) heavy: not shown light: DIVMTQSPATLSLSPGERATLSCTSSQSVYHANWLSWFQQKPGQPPKLLIYWASTLAYGVPSRFSGSGSGTDFTLTISSLQPEDAATYYCAGGYGGGRYAFGQGTKVEIKRTVAAPSVFIFPPSDEQLKSGTASVVCLLNNFYPREAKVQWKVDNALQSGNSQESVTEQDSKDSTYSLSSTLTLSKADYEKHKVYACEVTHQGLSSPVTKSFNRGEC | 0.6 fold | 0.1 fold | 0.9 fold | 0.4 fold | 0.43 fold | 0.7 fold | 1.5 fold | 0.68 fold
2 | M103205H795-MY044/M103202L889-SK1 (antibody, human IgG1, kappa, Substitution put into M103205H795-SG1) heavy: not shown light: DIVMTQSPATLSLSPGERATLSCTSSQSVYHANWLSWFQQKPGQPPKLLIYWASTLAYGVPSRFSGSGSGTDFTLTISSLQPEDAATYYCAGGYGGGRYAFGQGTKVEIKRTVAAPSVFIFPPSDEQLKSGTASVVCLLNNFYPREAKVQWKVDNALQSGNSQESVTEQDSKDSTYSLSSTLTLSKADYEKHKVYACEVTHQGLSSPVTKSFNRGEC | 1 fold | 1.5 fold | 0.3 fold | 1.1 fold | 0.77 fold | 1.2 fold | 1.4 fold | 0.9 fold
3 | M103205H795-MY063/M103202L889-SK1 (antibody, human IgG1, kappa, Substitution put into M103205H795-SG1) heavy: not shown light: DIVMTQSPATLSLSPGERATLSCTSSQSVYHANWLSWFQQKPGQPPKLLIYWASTLAYGVPSRFSGSGSGTDFTLTISSLQPEDAATYYCAGGYGGGRYAFGQGTKVEIKRTVAAPSVFIFPPSDEQLKSGTASVVCLLNNFYPREAKVQWKVDNALQSGNSQESVTEQDSKDSTYSLSSTLTLSKADYEKHKVYACEVTHQGLSSPVTKSFNRGEC | 2.3 fold | 3.4 fold | 8.5 fold | 5.3 fold | 5.37 fold | 5.2 fold | 7 fold | 5.06 fold
4 | M103205H795-MY064/M103202L889-SK1 (antibody, human IgG1, kappa, Substitution put into M103205H795-SG1) heavy: not shown light: DIVMTQSPATLSLSPGERATLSCTSSQSVYHANWLSWFQQKPGQPPKLLIYWASTLAYGVPSRFSGSGSGTDFTLTISSLQPEDAATYYCAGGYGGGRYAFGQGTKVEIKRTVAAPSVFIFPPSDEQLKSGTASVVCLLNNFYPREAKVQWKVDNALQSGNSQESVTEQDSKDSTYSLSSTLTLSKADYEKHKVYACEVTHQGLSSPVTKSFNRGEC | 1.3 fold | 2 fold | 2.5 fold | 1.6 fold | 3 fold | 1.6 fold | 1.9 fold | 3.68 fold
5 | M103205H795-MY045/M103202L889-SK1 (antibody, human IgG1, kappa, Substitution put into M103205H795-SG1) heavy: not shown light: DIVMTQSPATLSLSPGERATLSCTSSQSVYHANWLSWFQQKPGQPPKLLIYWASTLAYGVPSRFSGSGSGTDFTLTISSLQPEDAATYYCAGGYGGGRYAFGQGTKVEIKRTVAAPSVFIFPPSDEQLKSGTASVVCLLNNFYPREAKVQWKVDNALQSGNSQESVTEQDSKDSTYSLSSTLTLSKADYEKHKVYACEVTHQGLSSPVTKSFNRGEC | 0.6 fold | 1.3 fold | 2.5 fold | 0.8 fold | 2.57 fold | 0.7 fold | 1.6 fold | 3.38 fold
6 | M103205H795-MY048/M103202L889-SK1 (P271D) (antibody, human IgG1, kappa, Here the P271D molecule is meant; Put into M103205H795-SG1) heavy: not shown light: DIVMTQSPATLSLSPGERATLSCTSSQSVYHANWLSWFQQKPGQPPKLLIYWASTLAYGVPSRFSGSGSGTDFTLTISSLQPEDAATYYCAGGYGGGRYAFGQGTKVEIKRTVAAPSVFIFPPSDEQLKSGTASVVCLLNNFYPREAKVQWKVDNALQSGNSQESVTEQDSKDSTYSLSSTLTLSKADYEKHKVYACEVTHQGLSSPVTKSFNRGEC | 0.6 fold | 0.5 fold | 3.5 fold | 0.5 fold | 0.97 fold | 0.5 fold | 1.5 fold | 1.33 fold
